Consider one molecule from patent US20130196383A1, “Method of Producing Dicer” (published 2013).

In the experiment the target is T1, MBP-ATPase/hel, ATPase/helicase domain of human Dicer (1-604) fused with maltose-binding protein, bacterially … (human, UniProt Q9UPY3 1-604).
T1 construct: not shown: the His6 tag and the linker/TEV site lette
T1 sequence: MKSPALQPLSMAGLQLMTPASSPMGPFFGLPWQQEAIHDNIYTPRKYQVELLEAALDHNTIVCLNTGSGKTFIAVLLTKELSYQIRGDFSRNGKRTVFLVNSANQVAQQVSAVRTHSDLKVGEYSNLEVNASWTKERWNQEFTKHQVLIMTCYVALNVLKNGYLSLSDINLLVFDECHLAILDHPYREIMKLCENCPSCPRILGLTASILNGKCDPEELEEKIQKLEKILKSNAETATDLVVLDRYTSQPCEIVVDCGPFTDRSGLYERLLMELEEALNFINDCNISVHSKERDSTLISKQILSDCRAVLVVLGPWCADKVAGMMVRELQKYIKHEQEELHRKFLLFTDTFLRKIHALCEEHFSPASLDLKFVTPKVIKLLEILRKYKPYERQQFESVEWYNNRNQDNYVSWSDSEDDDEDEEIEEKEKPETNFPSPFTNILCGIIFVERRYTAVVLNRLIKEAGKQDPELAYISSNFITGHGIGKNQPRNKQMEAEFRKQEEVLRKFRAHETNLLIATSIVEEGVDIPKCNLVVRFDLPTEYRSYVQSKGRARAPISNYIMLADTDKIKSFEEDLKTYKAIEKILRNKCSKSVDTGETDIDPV
Kind of experiment: size exclusion and pull-down (brief figure description). The procedure: Six microgram of both of hTRBP2 and mbp-ATPase/hel-HA proteins were mixed with 15 μl of anti-hemagglutinin (anti-HA) antibody-coupled agarose beads in 1× phosphate-buffered saline (PBS) buffer (Sigma, Saint Louis, Mo.) and incubated in cold room and rocked 60 min. The mixture was pelleted by 30 sec spin at 10,000×g and then washed once with 1×PBS and followed by 5 times with the washing buffer of 20 mM Hepes (pH 7.5), 250 mM NaCl, 1% glycerol and 0.1% Triton X-100. After the last wash, the pellet was boiled for 3 min in 1.2×SDS protein loading buffer. As a control, hTRBP2 alone was also processed in the same way.
ATPase/Helicase domain of hDcr interacts with TRBP. A. Schematic representation of bacterially expressed ATPase/hel domain tagged with MBP. B. The interaction of MBP-ATPase/hel fragment with hTRBP2. A pre-incubated mixture of the MBP-ATPase/hel fragment with 3-fold excess of hTRBP2 was fractionated with a Superdex 200 size-exclusion column (top panel, elution profile). […] The excess hTRBP2 elutes in the second peak. C. MBP-ATPase/hel can pull-down hTRBP2. The MBP-ATPase/hel-domain was purified with a C-terminal hemagglutinin (HA) epitope tag. The two purified proteins (30 pmol of hDcr and 130 pmol of hTRBP2) were incubated on ice with anti-HA antibody agarose beads (Sigma-Aldrich) for 60 min prior to several washes. The bound proteins are eluted via boiling with 1.2×SDS buffer. […]
On the technique in general: In gel filtration, larger molecules generally elute earlier.

B1: human TAR-RNA binding protein (hTRBP2), recombinant (other, UniProt Q15633 1-366, looked up)
chain: MSEEEQGSGTTTGCGLPSIEQMLAANPGKTPISLLQEYGTRIGKTPVYDLLKAEGQAHQPNFTFRVTVGDTSCTGQGPSKKAAKHKAAEVALKHLKGGSMLEPALEDSSSFSPLDSSLPEDIPVFTAAAAATPVPSVVLTRSPPMELQPPVSPQQSECNPVGALQELVVQKGWRLPEYTVTQESGPAHRKEFTMTCRVERFIEIGSGTSKKLAKRNAAAKMLLRVHTVPLDARDGNEVEPDDDHFSIGVGSRLDGLRNRGPGCTWDSLRNSVGEKILSLRSCSLGSLGALGPACCRVLSELSEEQAFHVSYLDIEELSLSGLCQCLVELSTQPATVCHGSATTREAARGEAARRALQYLKIMAGSK
notes: Purified recombinant protein
Turning to B1, the binding result is listed as “binds”.
